Biological target: mouse synaptosomes
Assay: inhibition of active BoNT/A binding to synaptosomes

Q: “inactive BoNT/A (formaldehyde-inactivated toxoid) (from UniProt P0DPI0 2-1296)” was tested. Which maximum inhibition did it give?
A: 98%
